# Data from US20060222638A1, “Cholesterol biosynthesis pathway modulators and uses thereof” (priority 2003, published 2006).
# Entries after “also recorded” stand apart in the source; their conditions may differ. Like-named read-outs stand apart in the source and are kept apart here.
# B1: JCH2 native protein purified from Buthus martensii Karsch venom (protein)
# chain: DSLSPWNEGDTYYGCQRQTDEFCNKICKLHLASGGSCQQPAPFVKLCTCQGIDYDNSFFFGALEKQCPKLRE
# Experiments:
# HMG-CoA reductase = target: T1, HMG-CoA reductase (Homo sapiens, UniProt P04035); test: HMGCoA reductase activity assay, HepG2 cells treated with inhibitors, cell proteins used as enzyme source; assay type: cell-based
# T1 construct: The cell proteins were used as enzyme source; endogenous in cells; host or cells: HepG2
# T1 sequence (P04035 1-888): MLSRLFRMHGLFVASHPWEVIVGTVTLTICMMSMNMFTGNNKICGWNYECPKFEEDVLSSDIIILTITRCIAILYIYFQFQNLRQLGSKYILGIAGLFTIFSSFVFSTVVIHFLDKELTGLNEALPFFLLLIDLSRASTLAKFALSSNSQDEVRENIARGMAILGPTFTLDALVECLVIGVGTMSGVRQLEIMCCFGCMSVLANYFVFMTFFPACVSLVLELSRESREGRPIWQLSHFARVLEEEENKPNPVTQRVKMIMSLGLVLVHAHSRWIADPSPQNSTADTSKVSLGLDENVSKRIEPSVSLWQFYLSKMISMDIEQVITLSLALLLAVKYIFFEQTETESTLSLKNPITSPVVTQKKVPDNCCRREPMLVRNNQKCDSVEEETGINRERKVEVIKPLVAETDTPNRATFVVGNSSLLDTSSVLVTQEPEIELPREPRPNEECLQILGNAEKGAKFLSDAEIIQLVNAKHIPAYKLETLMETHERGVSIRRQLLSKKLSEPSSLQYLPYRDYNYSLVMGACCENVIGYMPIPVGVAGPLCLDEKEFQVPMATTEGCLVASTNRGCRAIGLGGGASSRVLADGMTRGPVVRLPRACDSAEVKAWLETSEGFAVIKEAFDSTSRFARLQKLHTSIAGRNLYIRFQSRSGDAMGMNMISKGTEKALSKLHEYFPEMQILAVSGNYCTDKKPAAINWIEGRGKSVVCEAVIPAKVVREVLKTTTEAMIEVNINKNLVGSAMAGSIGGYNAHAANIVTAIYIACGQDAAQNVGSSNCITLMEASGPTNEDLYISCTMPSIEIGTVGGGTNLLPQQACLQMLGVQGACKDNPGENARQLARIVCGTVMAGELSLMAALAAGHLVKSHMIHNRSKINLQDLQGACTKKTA
# Method: The cell stocks of Human Hepatoma cell line-HepG2 were cultured in T-25 flask in Eagle's minimum essential medium (MEM), supplemented with 10% fetal bovine serum, and incubated in a humidified incubator (5% CO2) at 37° C.
# After 4 hours incubation with the inhibitors, the media was discarded and cells were washed with 0.90%saline. The cells were scraped and collected into a 50 ml tube. The cells were centrifuged at 2400 rpm for 5 min at 4 C, and the resulting cell pellet was washed twice with 10 ml saline. The final cell pellet was resuspended in 30 μl lysis buffer and briefly sonicated. The suspension was centrifuged at 14,000 rpm for 15 min and the supernatant containing the enzyme, HMGCoA reductase, was used for the assay.
# In biosynthesis of cholesterol, HMG-CoA reductase is the key enzyme to convert HMG-CoA to its product mevalonate. In the presence of HCl, the mevalonate is converted into mevalonolactone. […] It will retain HMG-CoA, which is negatively charge in the column but not mevalonolactone, which will be eluted out by ammonium formate.
# The 50 μl assay buffer (100 mM potassium dihydrogen phosphate, 4 mM dithiothreitol, 20 mM glucose-6-phosphate, 20 unit glucose-6-phosphate dehydrogenase, 2.5 mM NADP^+, 30 μM [14C] HMG-CoA (0.01 μCi) and microsomal protein) was incubated at 37° C. for 1 hour. Reaction was terminated by addition of 25 μl of 2M HCl. After 30 min lactonization of mevalonate to mevalonolactone, 500 μl of 20 mM ammonium formate was added to each sample, spun for 5 min at 14,000 rpm.
# Supernatant was applied to the column that is pre-packed with QAE-Sephadex (4 cm), equilibrated with ammonium formate. The first 5 ml fractions was eluted with 20 mM ammonium formate, followed by 5 ml of 0.05M HCl and 10 ml of 0.1M HCl. Radioactivity of the first 5 ml (1 ml fraction) was determined using Beckman LS6500 scintillation counter.
# [1] = test system: HepG2 cell protein profile; test: Protein profiling by SELDI-TOF (H4 and NP20 chips) of treated HepG2 cells; assay type: cell-based, human; details: Table 3A, hydrophobic chip H4
# From the text: As for the protein profiling data, the profiles as shown in Table 3 were obtained by surface-enhanced laser […] ionization-time of flight mass spectro-photometry (SELDI-TOF) on treated and control samples using the H4 (hydrophobic) and the NP20 (hydrophilic) chips.
# [2] = target: T2, HMG-CoA reductase from human hepatoma HepG2 cells (human) (UniProt P04035); test: cell-based or functional assay
# T2 sequence: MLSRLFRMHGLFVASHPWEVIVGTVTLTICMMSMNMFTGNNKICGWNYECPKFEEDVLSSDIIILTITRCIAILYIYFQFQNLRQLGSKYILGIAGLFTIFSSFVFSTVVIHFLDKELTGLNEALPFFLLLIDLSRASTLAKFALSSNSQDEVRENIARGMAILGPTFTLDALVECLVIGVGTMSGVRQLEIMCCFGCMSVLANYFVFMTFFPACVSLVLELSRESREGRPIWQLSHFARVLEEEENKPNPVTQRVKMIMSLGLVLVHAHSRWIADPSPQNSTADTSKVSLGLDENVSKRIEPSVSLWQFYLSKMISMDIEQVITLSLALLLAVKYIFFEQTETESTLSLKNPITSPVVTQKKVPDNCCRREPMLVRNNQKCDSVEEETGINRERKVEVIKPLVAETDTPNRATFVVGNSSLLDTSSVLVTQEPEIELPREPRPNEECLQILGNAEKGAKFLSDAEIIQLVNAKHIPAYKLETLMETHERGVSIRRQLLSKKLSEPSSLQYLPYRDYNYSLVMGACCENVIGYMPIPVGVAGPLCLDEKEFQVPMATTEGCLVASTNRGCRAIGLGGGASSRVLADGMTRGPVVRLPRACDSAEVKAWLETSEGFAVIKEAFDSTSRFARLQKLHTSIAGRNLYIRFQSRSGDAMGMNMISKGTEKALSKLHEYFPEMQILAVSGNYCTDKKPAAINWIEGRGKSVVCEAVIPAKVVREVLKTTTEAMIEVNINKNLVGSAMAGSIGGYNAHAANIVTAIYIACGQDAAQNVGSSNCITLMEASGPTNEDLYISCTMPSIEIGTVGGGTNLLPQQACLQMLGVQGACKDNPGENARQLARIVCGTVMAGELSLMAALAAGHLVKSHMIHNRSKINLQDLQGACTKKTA
# HepG2 cell = test: Microarray analysis (global gene expression, HG_U133A chips) of treated HepG2 cells; assay type: cell-based, human
# Method: The global gene expression (DNA microarray) analysis was carried out on human gene chips (HG_U133A). […] Genes showing two-fold signal to log ratio in expression from two independent experiments were scored as significant.
# HMGCoA reductase = target: T3, HMGCoA reductase (Rattus norvegicus, UniProt P51639); test: HMGCoA reductase assay using the enzyme isolated from rat hepatocytes, inhibitors added to the enzyme assay; assay type: biochemical; details: enzyme from rat hepatocytes / rat liver microsomes
# T3 construct: enzymes purified from the rat liver microsomes; from tissue; host or cells: rat hepatocytes / rat liver microsomes
# T3 sequence (P51639 1-887): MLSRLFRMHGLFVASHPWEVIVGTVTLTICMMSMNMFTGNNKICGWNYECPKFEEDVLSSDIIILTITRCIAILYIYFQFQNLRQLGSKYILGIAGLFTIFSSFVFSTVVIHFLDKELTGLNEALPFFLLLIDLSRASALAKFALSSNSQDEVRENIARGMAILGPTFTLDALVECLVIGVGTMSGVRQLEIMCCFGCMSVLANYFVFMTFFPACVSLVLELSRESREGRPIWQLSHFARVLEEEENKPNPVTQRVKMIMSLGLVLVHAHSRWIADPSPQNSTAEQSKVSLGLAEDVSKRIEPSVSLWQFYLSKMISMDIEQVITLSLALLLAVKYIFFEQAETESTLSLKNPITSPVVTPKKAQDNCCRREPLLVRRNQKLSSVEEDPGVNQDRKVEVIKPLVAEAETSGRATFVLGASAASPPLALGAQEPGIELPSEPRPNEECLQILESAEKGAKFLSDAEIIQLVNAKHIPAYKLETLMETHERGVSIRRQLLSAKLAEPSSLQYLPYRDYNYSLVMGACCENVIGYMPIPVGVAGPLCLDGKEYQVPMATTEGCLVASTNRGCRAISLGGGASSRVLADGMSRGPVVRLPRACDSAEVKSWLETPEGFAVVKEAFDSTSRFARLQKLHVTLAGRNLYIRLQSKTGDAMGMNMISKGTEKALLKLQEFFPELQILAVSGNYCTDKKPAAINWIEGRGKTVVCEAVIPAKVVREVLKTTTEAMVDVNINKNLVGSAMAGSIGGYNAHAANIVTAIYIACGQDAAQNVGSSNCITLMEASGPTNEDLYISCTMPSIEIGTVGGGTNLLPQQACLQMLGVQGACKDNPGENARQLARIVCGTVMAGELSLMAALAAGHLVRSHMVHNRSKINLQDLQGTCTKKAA
# [3] = HepG2, read-out: % of inhibition on HMG-CoA reductase activity, DMSO medium
# [4] = HepG2 cells treated with synthetic peptides or statins at 10 μM, vs untreated cells
molecule,measurement,setting,value
"CC(C)c1c(C(=O)Nc2ccccc2)c(-c2ccccc2)c(-c2ccc(F)cc2)n1CC[C@@H](O)C[C@@H](O)CC(=O)O [Atorvastatin, reference compound]",inhibition at 10 µM,HMG-CoA reductase; [3],70%
"CC(C)n1c(/C=C/C(O)CC(O)CC(=O)O)c(-c2ccc(F)cc2)c2ccccc21 (centres unmarked) [Fluvastatin, reference compound]",inhibition at 10 µM,"HMG-CoA reductase; HepG2 cells treated with synthetic peptides or statins at 10 μM, vs untreated cells, read-out: % of inhibition on HMG-CoA reductase activity, DMSO medium",74%
"CC[C@H](C)C(=O)O[C@H]1CCC=C2C=C[C@H](C)[C@H](CC[C@@H]3C[C@@H](O)CC(=O)O3)[C@H]21 [Mevastatin, reference compound]","% of inhibition on HMG-CoA reductase activity, Aqueous medium",HMG-CoA reductase; 10 µM,35%
same,"% of inhibition on HMG-CoA reductase activity, DMSO medium",HMG-CoA reductase; 10 µM,60%
"CCC(C)(C)C(=O)O[C@H]1C[C@@H](C)C=C2C=C[C@H](C)[C@H](CC[C@@H]3C[C@@H](O)CC(=O)O3)[C@H]21 [Simvastatin, reference compound]",inhibition at 10 µM,"HMG-CoA reductase; HepG2, read-out: % of inhibition on HMG-CoA reductase activity, Aqueous medium",35%
same,inhibition at 10 µM,HMG-CoA reductase; [3],65%
DSLSPWNEGDTYYG (Buthus martensii Karsch) [Peptide 6],"% of inhibition on HMG-CoA reductase activity, Aqueous medium",HMG-CoA reductase; [4],4%
GCQRQTDEFCNKICKLHLASG (Buthus martensii Karsch) [Peptide 5],"% of inhibition on HMG-CoA reductase activity, Aqueous medium",HMG-CoA reductase; [4],2%
GDTYYG (Buthus martensii Karsch) [Peptide 9],"% of inhibition on HMG-CoA reductase activity, Aqueous medium",HMG-CoA reductase; [4],3%
KLHLASGGSCQQPAPFVKL (Buthus martensii Karsch) [Peptide 2],"% of inhibition on HMG-CoA reductase activity, Aqueous medium",HMG-CoA reductase; [4],30%
same,"% of inhibition on HMG-CoA reductase activity, DMSO medium",HMG-CoA reductase; [4],7%
LSPWNEGDTYYGCQR (Buthus martensii Karsch) [Peptide 7],"% of inhibition on HMG-CoA reductase activity, Aqueous medium",HMG-CoA reductase; [4],2%
PAPFVKLCTCQGIDYDNSFFFG (Buthus martensii Karsch) [Peptide 3],"% of inhibition on HMG-CoA reductase activity, Aqueous medium",HMG-CoA reductase; [4],10%
same,"% of inhibition on HMG-CoA reductase activity, DMSO medium",HMG-CoA reductase; [4],15%
QGIDYDNSFFFGALEKQCPK (Buthus martensii Karsch) [Peptide 4],"% of inhibition on HMG-CoA reductase activity, Aqueous medium",HMG-CoA reductase; [4],7%
QPAPFVKLCTCQGI (Buthus martensii Karsch) [Peptide 1],"% of inhibition on HMG-CoA reductase activity, Aqueous medium",HMG-CoA reductase; [4],20%
same,"% of inhibition on HMG-CoA reductase activity, DMSO medium",HMG-CoA reductase; [4],20%
SPWNEGD (Buthus martensii Karsch) [Peptide 8],"% of inhibition on HMG-CoA reductase activity, Aqueous medium",HMG-CoA reductase; [4],1%
B1,ApoC-II/III (8.8 kDa),[1],↑ ↑
same,StAR related lipid transfer protein (23.0 kDa),[1],↑ ↑
same,HMGCoA reductase inhibitory activity compared with statins (in words),"HMG-CoA reductase; HepG2 cell HMGCoA reductase, JCH2 0.6 μM vs statins 10 μM",lowering the HMGCoA reductase activity at much lower concentrations than the known inhibitors; also recorded: higher inhibitory activity
same,"% of inhibition on HMG-CoA reductase activity, Aqueous medium","HMG-CoA reductase; HepG2 cells treated with native proteins at 10 μg each (JCH2 0.6 μM), vs untreated cells",30%
same,"% of inhibition on HMG-CoA reductase activity, aqueous medium, JCH2 at 0.6 µM (10 µg)",[2],30%
same,HMGCoA reductase mRNA (in words),HepG2 cell; microarray,reducing the reductase mRNA
same,"mevalonate, the precursor for cholesterol biosynthesis (in words)",HepG2 cell; microarray analysis,lowering the mevalonate
same,HMGCoA reductase inhibitory activity (in words),HMGCoA reductase,higher inhibitory activity
